Measured values from the supplement of paper PMC6757056.
± gives the standard deviation of the averaged measurements.

B1: library; a variant is named by its letters at N, in order (parent)
chain: GCUGUCACCGGUGCUUGGUACGUUAUAUUCAGCCGGUCUGAUGAGUCUNNNNNNAGACGAAACAGC

How the values were obtained:
(6R,S)-folinic acid [1] = variants of: B1; test: normalized RNA/DNA level without ligand (relative to sTRSVctl = 100) (log10 (% of sTRSVctl)); HEK293T overexpressing SLC46A1; higher = less ribozyme self-cleavage, higher mRNA level; conditions: without (6R,S)-folinic acid; ligand present: no
Procedure, shortened: (§1)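 Library plasmids carrying ribozyme switches linked to mCherry, or to eGFP in some ligand experiments, were transfected into HEK293T at 4 µg per 6-well well, with any ligand added 1 h earlier. Seventy-two hours on, total RNA was extracted with EDTA and reverse-transcribed, amplified, barcoded and sequenced. RNA level was RNA over DNA reads normalized to a spiked-in non-cleaving sequence or to the top sequences, then scaled and log-transformed. The top set was 25 sequences, the transform was ×100 and log10, and sequences needed ≥100 DNA reads.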

(6R,S)-folinic acid [2] = variants of: B1; test: normalized RNA/DNA level with ligand (relative to sTRSVctl = 100) (log10 (% of sTRSVctl)); HEK293T overexpressing SLC46A1; ligand concentration (+) RNA-Seq: 6 mM; higher = less ribozyme self-cleavage, higher mRNA level; conditions: with (6R,S)-folinic acid; ligand present: yes
Procedure, shortened: as §1

## GCAAUU
(6R,S)-folinic acid [1]
  normalized RNA/DNA level without ligand (log10): 2.039 ± 0.01
(6R,S)-folinic acid [2]
  normalized RNA/DNA level with ligand (log10): 2.04 ± 0.042

## ACAAUU
(6R,S)-folinic acid [1]
  normalized RNA/DNA level without ligand (log10): 2.018 ± 0.0076
(6R,S)-folinic acid [2]
  normalized RNA/DNA level with ligand (log10): 2.044 ± 0.018

## UCAAUU
(6R,S)-folinic acid [1]
  normalized RNA/DNA level without ligand (log10): 2.013 ± 0.011
(6R,S)-folinic acid [2]
  normalized RNA/DNA level with ligand (log10): 2.02 ± 0.014

## ACACAA
(6R,S)-folinic acid [1]
  normalized RNA/DNA level without ligand (log10): 1.968 ± 0.019
(6R,S)-folinic acid [2]
  normalized RNA/DNA level with ligand (log10): 1.98 ± 0.045

## UCACAA
(6R,S)-folinic acid [1]
  normalized RNA/DNA level without ligand (log10): 1.982 ± 0.017
(6R,S)-folinic acid [2]
  normalized RNA/DNA level with ligand (log10): 1.98 ± 0.025

## CCACAC
(6R,S)-folinic acid [1]
  normalized RNA/DNA level without ligand (log10): 1.99 ± 0.02
(6R,S)-folinic acid [2]
  normalized RNA/DNA level with ligand (log10): 1.967 ± 0.0084

## ACACAC
(6R,S)-folinic acid [1]
  normalized RNA/DNA level without ligand (log10): 2.019 ± 0.0045
(6R,S)-folinic acid [2]
  normalized RNA/DNA level with ligand (log10): 2.01 ± 0.058

## UCACAC
(6R,S)-folinic acid [1]
  normalized RNA/DNA level without ligand (log10): 2.048 ± 0.015
(6R,S)-folinic acid [2]
  normalized RNA/DNA level with ligand (log10): 2.023 ± 0.016

## CCACAG
(6R,S)-folinic acid [1]
  normalized RNA/DNA level without ligand (log10): 1.95 ± 0.026
(6R,S)-folinic acid [2]
  normalized RNA/DNA level with ligand (log10): 2 ± 0.024

## GCACAG
(6R,S)-folinic acid [1]
  normalized RNA/DNA level without ligand (log10): 1.936 ± 0.0048
(6R,S)-folinic acid [2]
  normalized RNA/DNA level with ligand (log10): 2 ± 0.024

## ACACAG
(6R,S)-folinic acid [1]
  normalized RNA/DNA level without ligand (log10): 1.953 ± 0.0027
(6R,S)-folinic acid [2]
  normalized RNA/DNA level with ligand (log10): 2.01 ± 0.048

## UCACAG
(6R,S)-folinic acid [1]
  normalized RNA/DNA level without ligand (log10): 1.9 ± 0.0082
(6R,S)-folinic acid [2]
  normalized RNA/DNA level with ligand (log10): 1.979 ± 0.012

## CCACAU
(6R,S)-folinic acid [1]
  normalized RNA/DNA level without ligand (log10): 1.961 ± 0.004
(6R,S)-folinic acid [2]
  normalized RNA/DNA level with ligand (log10): 1.98 ± 0.072

## GCACAU
(6R,S)-folinic acid [1]
  normalized RNA/DNA level without ligand (log10): 1.991 ± 0.0072
(6R,S)-folinic acid [2]
  normalized RNA/DNA level with ligand (log10): 2.01 ± 0.025

## UCACAU
(6R,S)-folinic acid [1]
  normalized RNA/DNA level without ligand (log10): 1.986 ± 0.0076
(6R,S)-folinic acid [2]
  normalized RNA/DNA level with ligand (log10): 2.02 ± 0.048

## CCACCA
(6R,S)-folinic acid [1]
  normalized RNA/DNA level without ligand (log10): 2.044 ± 0.012
(6R,S)-folinic acid [2]
  normalized RNA/DNA level with ligand (log10): 2.01 ± 0.041

## GCACCA
(6R,S)-folinic acid [1]
  normalized RNA/DNA level without ligand (log10): 2.04 ± 0.022
(6R,S)-folinic acid [2]
  normalized RNA/DNA level with ligand (log10): 2 ± 0.039

## UCACCA
(6R,S)-folinic acid [1]
  normalized RNA/DNA level without ligand (log10): 2.0085 ± 0.0017
(6R,S)-folinic acid [2]
  normalized RNA/DNA level with ligand (log10): 2.006 ± 0.0035

## CCACCC
(6R,S)-folinic acid [1]
  normalized RNA/DNA level without ligand (log10): 2.038 ± 0.011
(6R,S)-folinic acid [2]
  normalized RNA/DNA level with ligand (log10): 1.994 ± 0.014

## GCACCC
(6R,S)-folinic acid [1]
  normalized RNA/DNA level without ligand (log10): 2.024 ± 0.004
(6R,S)-folinic acid [2]
  normalized RNA/DNA level with ligand (log10): 2.012 ± 0.0027

## ACACCC
(6R,S)-folinic acid [1]
  normalized RNA/DNA level without ligand (log10): 2.041 ± 0.0034
(6R,S)-folinic acid [2]
  normalized RNA/DNA level with ligand (log10): 1.97 ± 0.045

## UCACCC
(6R,S)-folinic acid [1]
  normalized RNA/DNA level without ligand (log10): 2.05 ± 0.025
(6R,S)-folinic acid [2]
  normalized RNA/DNA level with ligand (log10): 2.04 ± 0.037

## CCACCG
(6R,S)-folinic acid [1]
  normalized RNA/DNA level without ligand (log10): 2.007 ± 0.018
(6R,S)-folinic acid [2]
  normalized RNA/DNA level with ligand (log10): 2.01 ± 0.054

## GCACCG
(6R,S)-folinic acid [1]
  normalized RNA/DNA level without ligand (log10): 2.055 ± 0.0053
(6R,S)-folinic acid [2]
  normalized RNA/DNA level with ligand (log10): 2.05 ± 0.061

## CCACCU
(6R,S)-folinic acid [1]
  normalized RNA/DNA level without ligand (log10): 2.101 ± 0.015
(6R,S)-folinic acid [2]
  normalized RNA/DNA level with ligand (log10): 2.07 ± 0.033

## GCACCU
(6R,S)-folinic acid [1]
  normalized RNA/DNA level without ligand (log10): 2.028 ± 0.015
(6R,S)-folinic acid [2]
  normalized RNA/DNA level with ligand (log10): 2.01 ± 0.035

## ACACCU
(6R,S)-folinic acid [1]
  normalized RNA/DNA level without ligand (log10): 2.0447 ± 0.0018
(6R,S)-folinic acid [2]
  normalized RNA/DNA level with ligand (log10): 2.05 ± 0.048

## UCACCU
(6R,S)-folinic acid [1]
  normalized RNA/DNA level without ligand (log10): 2.051 ± 0.0042
(6R,S)-folinic acid [2]
  normalized RNA/DNA level with ligand (log10): 2.06 ± 0.027

## CCACGA
(6R,S)-folinic acid [1]
  normalized RNA/DNA level without ligand (log10): 2.011 ± 0.0078
(6R,S)-folinic acid [2]
  normalized RNA/DNA level with ligand (log10): 2.019 ± 0.009

## GCACGA
(6R,S)-folinic acid [1]
  normalized RNA/DNA level without ligand (log10): 2.029 ± 0.005
(6R,S)-folinic acid [2]
  normalized RNA/DNA level with ligand (log10): 2.03 ± 0.038

## UCACGA
(6R,S)-folinic acid [1]
  normalized RNA/DNA level without ligand (log10): 2.019 ± 0.0037
(6R,S)-folinic acid [2]
  normalized RNA/DNA level with ligand (log10): 2.03 ± 0.028

## CCACGC
(6R,S)-folinic acid [1]
  normalized RNA/DNA level without ligand (log10): 2.01 ± 0.022
(6R,S)-folinic acid [2]
  normalized RNA/DNA level with ligand (log10): 2.01 ± 0.025

## GCACGC
(6R,S)-folinic acid [1]
  normalized RNA/DNA level without ligand (log10): 2.025 ± 0.0075
(6R,S)-folinic acid [2]
  normalized RNA/DNA level with ligand (log10): 2.024 ± 0.02

## ACACGC
(6R,S)-folinic acid [1]
  normalized RNA/DNA level without ligand (log10): 1.981 ± 0.015
(6R,S)-folinic acid [2]
  normalized RNA/DNA level with ligand (log10): 1.99 ± 0.049

## UCACGC
(6R,S)-folinic acid [1]
  normalized RNA/DNA level without ligand (log10): 2.036 ± 0.0036
(6R,S)-folinic acid [2]
  normalized RNA/DNA level with ligand (log10): 1.97 ± 0.023

## CCACGG
(6R,S)-folinic acid [1]
  normalized RNA/DNA level without ligand (log10): 2.06 ± 0.029
(6R,S)-folinic acid [2]
  normalized RNA/DNA level with ligand (log10): 2.04 ± 0.048

## GCACGG
(6R,S)-folinic acid [1]
  normalized RNA/DNA level without ligand (log10): 1.997 ± 0.016
(6R,S)-folinic acid [2]
  normalized RNA/DNA level with ligand (log10): 2.006 ± 0.018

## ACACGG
(6R,S)-folinic acid [1]
  normalized RNA/DNA level without ligand (log10): 1.934 ± 0.013
(6R,S)-folinic acid [2]
  normalized RNA/DNA level with ligand (log10): 2.02 ± 0.04

## UCACGG
(6R,S)-folinic acid [1]
  normalized RNA/DNA level without ligand (log10): 1.965 ± 0.019
(6R,S)-folinic acid [2]
  normalized RNA/DNA level with ligand (log10): 2 ± 0.043

## GCACGU
(6R,S)-folinic acid [1]
  normalized RNA/DNA level without ligand (log10): 1.99 ± 0.02
(6R,S)-folinic acid [2]
  normalized RNA/DNA level with ligand (log10): 2.01 ± 0.023

## ACACGU
(6R,S)-folinic acid [1]
  normalized RNA/DNA level without ligand (log10): 2.023 ± 0.013
(6R,S)-folinic acid [2]
  normalized RNA/DNA level with ligand (log10): 2.03 ± 0.022

## UCACGU
(6R,S)-folinic acid [1]
  normalized RNA/DNA level without ligand (log10): 1.98 ± 0.036
(6R,S)-folinic acid [2]
  normalized RNA/DNA level with ligand (log10): 2.01 ± 0.03

## CCACUA
(6R,S)-folinic acid [1]
  normalized RNA/DNA level without ligand (log10): 2.018 ± 0.0041
(6R,S)-folinic acid [2]
  normalized RNA/DNA level with ligand (log10): 2.02 ± 0.015

## GCACUA
(6R,S)-folinic acid [1]
  normalized RNA/DNA level without ligand (log10): 2.019 ± 0.018
(6R,S)-folinic acid [2]
  normalized RNA/DNA level with ligand (log10): 2.01 ± 0.022

## ACACUA
(6R,S)-folinic acid [1]
  normalized RNA/DNA level without ligand (log10): 2.017 ± 0.012
(6R,S)-folinic acid [2]
  normalized RNA/DNA level with ligand (log10): 2.01 ± 0.043

## UCACUA
(6R,S)-folinic acid [1]
  normalized RNA/DNA level without ligand (log10): 1.9969 ± 0.0017
(6R,S)-folinic acid [2]
  normalized RNA/DNA level with ligand (log10): 2.019 ± 0.0085

## CCACUC
(6R,S)-folinic acid [1]
  normalized RNA/DNA level without ligand (log10): 1.9795 ± 0.0011
(6R,S)-folinic acid [2]
  normalized RNA/DNA level with ligand (log10): 2.008 ± 0.02

## GCACUC
(6R,S)-folinic acid [1]
  normalized RNA/DNA level without ligand (log10): 2.022 ± 0.0041
(6R,S)-folinic acid [2]
  normalized RNA/DNA level with ligand (log10): 2.022 ± 0.0086

## ACACUC
(6R,S)-folinic acid [1]
  normalized RNA/DNA level without ligand (log10): 2.05 ± 0.027
(6R,S)-folinic acid [2]
  normalized RNA/DNA level with ligand (log10): 2.03 ± 0.031

## UCACUC
(6R,S)-folinic acid [1]
  normalized RNA/DNA level without ligand (log10): 2.07 ± 0.01
(6R,S)-folinic acid [2]
  normalized RNA/DNA level with ligand (log10): 2.05 ± 0.026

## CCACUG
(6R,S)-folinic acid [1]
  normalized RNA/DNA level without ligand (log10): 2.02 ± 0.041
(6R,S)-folinic acid [2]
  normalized RNA/DNA level with ligand (log10): 2.074 ± 0.018

## GCACUG
(6R,S)-folinic acid [1]
  normalized RNA/DNA level without ligand (log10): 2 ± 0.024
(6R,S)-folinic acid [2]
  normalized RNA/DNA level with ligand (log10): 2.02 ± 0.056

## ACACUG
(6R,S)-folinic acid [1]
  normalized RNA/DNA level without ligand (log10): 1.968 ± 0.01
(6R,S)-folinic acid [2]
  normalized RNA/DNA level with ligand (log10): 2.03 ± 0.044

## UCACUG
(6R,S)-folinic acid [1]
  normalized RNA/DNA level without ligand (log10): 1.906 ± 0.0057
(6R,S)-folinic acid [2]
  normalized RNA/DNA level with ligand (log10): 2.015 ± 0.02

## GCACUU
(6R,S)-folinic acid [1]
  normalized RNA/DNA level without ligand (log10): 2.001 ± 0.017
(6R,S)-folinic acid [2]
  normalized RNA/DNA level with ligand (log10): 2.01 ± 0.021

## ACACUU
(6R,S)-folinic acid [1]
  normalized RNA/DNA level without ligand (log10): 1.996 ± 0.016
(6R,S)-folinic acid [2]
  normalized RNA/DNA level with ligand (log10): 2.03 ± 0.027

## UCACUU
(6R,S)-folinic acid [1]
  normalized RNA/DNA level without ligand (log10): 2.021 ± 0.0092
(6R,S)-folinic acid [2]
  normalized RNA/DNA level with ligand (log10): 2.04 ± 0.018

## CCAGAA
(6R,S)-folinic acid [1]
  normalized RNA/DNA level without ligand (log10): 1.982 ± 0.0051
(6R,S)-folinic acid [2]
  normalized RNA/DNA level with ligand (log10): 1.98 ± 0.053
